What is called Kd is a measure of binding affinity in units of concentration. Low readings indicate a tighter complex, high ones a looser complex.

In the assay the target is Aip5C-L (997–1234) (S. cerevisiae, UniProt P43597 997-1233). Put plainly: fluorescence polarisation. Background: In fluorescence polarisation assays a small probe gives low polarisation when free and higher when bound to something large.
Aip5C-L (997–1234), sequence (P43597 997-1233): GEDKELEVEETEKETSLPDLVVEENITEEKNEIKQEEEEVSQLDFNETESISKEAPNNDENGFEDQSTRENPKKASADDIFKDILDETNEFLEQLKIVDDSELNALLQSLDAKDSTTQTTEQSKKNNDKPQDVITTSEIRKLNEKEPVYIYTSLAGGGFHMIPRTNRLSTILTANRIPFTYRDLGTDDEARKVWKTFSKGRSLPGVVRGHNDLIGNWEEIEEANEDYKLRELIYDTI

B1: Bud6 (1–145)-kCk-Alexa488 (domain or fragment, S. cerevisiae, UniProt P41697 1-145, looked up)
chain: MKMAVDDPTYGTPKIKRTASSSSSIETTVTKLLMSTKHLLQVLTQWSKGTTSGRLVSDAYVQLGNDFKVVSKFFMHAKVDMSDVGDVPMALRRVLEVTLREPPSDETLNKHLPKIREIIVTLLDKLKVKQAILKNMQQEHRISVK
modifications: Alexa488 maleimide on the single cysteine of the C-terminal KCK sequence
Take B1: the Kd was found to be 85 nM.

Source of the values: article PMC12916166 (The Journal of cell biology, 2025).
